Residue numbers refer to the chain shown, from its start.

The data set deals with the molecule itself. In words: SEC.

B1: 3×Ala-MxEnc (natural protein, Myxococcus xanthus)
chain: MPDFLGHAENPLREEEWARLNETVIQVARRSLVGRRILDIYGPLGAGVQTVPYDEFQGVSPGAVDIVGEQETAMVFTDARKFKTIPIIYKDFLLHWRDIEAARTHNMPLDVSAAAGAAALCAQQEDELIFYGDARLGYEGLMTANGRLTVPLGDWTSPGGGFQAIVEATRKLNEQGHFGPYAVVLSPRLYSQLHRIYEAAAVLEIETIRQLASDGVYQSNRLRGESGVVVSTGRENMDLAVSMDMVAAYLGASRMNHPFRVLEALLLRIKHPDAICTLEGAGATERR
For the protein B1, the binding result was “binds”.

B2: 3×Asp-MxEnc (natural protein, Myxococcus xanthus)
chain: B1 chain with A199D, A200D, A201D
Regarding B2, the binding result was “binds”.
